{"source": "paper PMC5727187", "about": "“Insights into the structure and assembly of a bacterial cellulose secretion system” (Nature Communications, 2017)", "proteins": {"B1": {"name": "BcsB (recombinant, BL21) (natural protein, E. coli 1094, UniProt P37652 26-779, looked up)", "chain": "TPATQPLINAEPAVAAQTEQNPQVGQVMPGVQGADAPVVAQNGPSRDVKLTFAQIAPPPGSMVLRGINPNGSIEFGMRSDEVVTKAMLNLEYTPSPSLLPVQSQLKVYLNDELMGVLPVTKEQLGKKTLAQMPINPLFISDFNRVRLEFVGHYQDVCEKPASTTLWLDVGRSSGLDLTYQTLNVKNDLSHFPVPFFDPSDNRTNTLPMVFAGAPDVGLQQASAIVASWFGSRSGWRGQNFPVLYNQLPDRNAIVFATNDKRPDFLRDHPAVKAPVIEMINHPQNPYVKLLVVFGRDDKDLLQAAKGIAQGNILFRGESVVVNEVKPLLPRKPYDAPNWVRTDRPVTFGELKTYEEQLQSSGLEPAAINVSLNLPPDLYLMRSTGIDMDINYRYTMPPVKDSSRMDISLNNQFLQSFNLSSKQEANRLLLRIPVLQGLLDGKTDVSIPALKLGATNQLRFDFEYMNPMPGGSVDNCITFQPVQNHVVIGDDSTIDFSKYYHFIPMPDLRAFANAGFPFSRMADLSQTITVMPKAPNEAQMETLLNTVGFIGAQTGFPAINLTVTDDGSTIQGKDADIMIIGGIPDKLKDDKQIDLLVQATESWVKTPMRQTPFPGIVPDESDRAAETRSTLTSSGAMAAVIGFQSPYNDQRSVIALLADSPRGYEMLNDAVNDSGKRATMFGSVAVIRESGINSLRVGDVYYVGHLPWFERVWYALANHPILLAVLAAISVILLAWVLWRLLRIISRRRLNPDNE", "notes": "BcsB, amplified from genomic DNA of E. coli 1094 bcsA^HA-FLAG; source: E. coli BL21 (DE3), bcs^HisRQA^HA-FLAGB-pCDF-Duet, co-expressed, detergent-solubilised membranes; purified complex for EM"}, "B2": {"name": "BcsB (natural protein, E. coli 1094, UniProt P37652 26-779, looked up)", "chain": "B1 chain", "notes": "BcsB, E. coli strain 1094, untagged; source: E. coli 1094 bcsA^HA-FLAG 2K7 strain (bcs operons overexpressed from the chromosome), solubilised membranes; purified complex for EM"}}, "key": {"[1]": {"target": "the molecule itself", "test": "negative-stain electron microscopy; Inner membrane subcomplex purified from BL21 (DE3) expressing bcs^HisRQA^HA-FLAGB-pCDF-Duet; reconstruction at 21.1 Å"}, "[2]": {"target": "the molecule itself", "test": "negative-stain electron microscopy; Bcs macrocomplex purified from E. coli 1094 bcsA^HA-FLAG 2K7, GraFix cross-linked in the gradient; non-symmetrized reconstruction at 16.7 Å"}}}
{"protein": "B1", "values": [{"measurement": "stoichiometry N", "setting": "[1]", "value": 6}]}
{"protein": "B2", "values": [{"measurement": "stoichiometry N", "setting": "[2]", "value": 6}]}
